pEC50, pKd: −log10 of the molar value.
Legend:
[1] = target: SSA autoantigen; test: Athena assay, mAb 25 ug/ml; positive >50
[2] = target: Scl 70 autoantigen; test: Athena assay, mAb 25 ug/ml; positive >50
[3] = target: centromere B autoantigen; test: Athena assay, mAb 25 ug/ml; positive >50
[4] = target: RNP autoantigen; test: Athena assay, mAb 25 ug/ml; positive >50
[5] = target: Jo 1 autoantigen; test: Athena assay, mAb 25 ug/ml; positive >50
[6] = target: SSB autoantigen; test: Athena assay, mAb 25 ug/ml; positive >50
[7] = target: Histone autoantigen; test: Athena assay, mAb 25 ug/ml; positive >50
[8] = target: Sm autoantigen; test: Athena assay, mAb 25 ug/ml; positive >50
[9] = target: A244 gD- gp120 (HIV-1); test: SPR
[10] = target: Env of HIV-1 clade A isolate Q23.17 (HIV-1); test: cell-based or functional assay
[11] = target: Env of HIV-1 clade B isolate 7165.18 (HIV-1); test: cell-based or functional assay
[12] = target: Env of HIV-1 JRFL.E168K (HIV-1); test: cell-based or functional assay
[13] = target: Env of HIV-1 Q23.17.N160K (HIV-1); test: cell-based or functional assay
[14] = target: Env of HIV-1 JRCSF.N160K (HIV-1) (UniProt P20871); test: cell-based or functional assay
[15] = target: Env of HIV-1 JRFL.N160K.E168K (HIV-1); test: cell-based or functional assay
[16] = target: Env of HIV-1 clade B isolate JRFL (virus) (HIV-1); test: cell-based or functional assay
[17] = target: Env of HIV-1 7165.18.N160K (HIV-1); test: cell-based or functional assay
[18] = target: SSA autoantigen; test: Athena assay, mAb 6.25 ug/ml; positive >50
[19] = target: Scl 70 autoantigen; test: Athena assay, mAb 6.25 ug/ml; positive >50
[20] = target: centromere B autoantigen; test: Athena assay, mAb 6.25 ug/ml; positive >50
[21] = target: RNP autoantigen; test: Athena assay, mAb 6.25 ug/ml; positive >50
[22] = target: Jo 1 autoantigen; test: Athena assay, mAb 6.25 ug/ml; positive >50
[23] = target: SSB autoantigen; test: Athena assay, mAb 6.25 ug/ml; positive >50
[24] = target: Histone autoantigen; test: Athena assay, mAb 6.25 ug/ml; positive >50
[25] = target: Sm autoantigen; test: Athena assay, mAb 6.25 ug/ml; positive >50
[26] = target: Influenza HA (Wisconsin) (influenza virus); test: Luminex assay, antibody 50 µg/ml
[27] = target: HV00046 (902114 B2 140C) (HIV-1); test: ELISA on monomeric envelope
[28] = target: CM 243 gp120 (HIV-1); test: ELISA on monomeric envelope
[29] = target: SSA autoantigen; test: Athena assay, mAb 12.5 ug/ml; positive >50
[30] = target: Scl 70 autoantigen; test: Athena assay, mAb 12.5 ug/ml; positive >50
[31] = target: centromere B autoantigen; test: Athena assay, mAb 12.5 ug/ml; positive >50
[32] = target: RNP autoantigen; test: Athena assay, mAb 12.5 ug/ml; positive >50
[33] = target: Jo 1 autoantigen; test: Athena assay, mAb 12.5 ug/ml; positive >50
[34] = target: SSB autoantigen; test: Athena assay, mAb 12.5 ug/ml; positive >50
[35] = target: Histone autoantigen; test: Athena assay, mAb 12.5 ug/ml; positive >50
[36] = target: Sm autoantigen; test: Athena assay, mAb 12.5 ug/ml; positive >50
[37] = target: SSA autoantigen; test: Athena assay, mAb 50 ug/ml; positive >50
[38] = target: Scl 70 autoantigen; test: Athena assay, mAb 50 ug/ml; positive >50
[39] = target: centromere B autoantigen; test: Athena assay, mAb 50 ug/ml; positive >50
[40] = target: RNP autoantigen; test: Athena assay, mAb 50 ug/ml; positive >50
[41] = target: Jo 1 autoantigen; test: Athena assay, mAb 50 ug/ml; positive >50
[42] = target: SSB autoantigen; test: Athena assay, mAb 50 ug/ml; positive >50
[43] = target: Histone autoantigen; test: Athena assay, mAb 50 ug/ml; positive >50
[44] = target: Sm autoantigen; test: Athena assay, mAb 50 ug/ml; positive >50

**Q.** Which results are given for CH01 (antibody)?
**A.** Autoreactivity (Athena) [1]: 6.5; Autoreactivity (Athena) [2]: 3; Autoreactivity (Athena) [3]: 14; Autoreactivity (Athena) [4]: 5.5; Autoreactivity (Athena) [5]: 2.5; Autoreactivity (Athena) [6]: 5.5; Autoreactivity (Athena) [7]: 17.5; Autoreactivity (Athena) [8]: 4; pKd [9]: 6.47; IC50 ug/ml (virus neutralization) [10]: 0.014 µg/mL; IC80 ug/ml (virus neutralization) [10]: 0.035 µg/mL; IC50 ug/ml (virus neutralization) [11]: 5.82 µg/mL; IC80 ug/ml (virus neutralization) [11]: > 50 µg/mL; IC50 ug/ml (virus neutralization) [12]: 0.044 µg/mL; IC80 ug/ml (virus neutralization) [12]: 0.382 µg/mL; IC50 ug/ml (virus neutralization) [13]: > 50 µg/mL; IC80 ug/ml (virus neutralization) [13]: > 50 µg/mL; IC50 ug/ml (virus neutralization) [14]: > 50 µg/mL; IC80 ug/ml (virus neutralization) [14]: > 50 µg/mL; IC50 ug/ml (virus neutralization) [15]: > 50 µg/mL; IC80 ug/ml (virus neutralization) [15]: > 50 µg/mL; IC50 ug/ml (virus neutralization) [16]: > 50 µg/mL; IC80 ug/ml (virus neutralization) [16]: > 50 µg/mL; IC50 ug/ml (virus neutralization) [17]: > 50 µg/mL; IC80 ug/ml (virus neutralization) [17]: > 50 µg/mL; Autoreactivity (Athena) [18]: 5.5; Autoreactivity (Athena) [19]: 1.5; Autoreactivity (Athena) [20]: 7; Autoreactivity (Athena) [21]: 4; Autoreactivity (Athena) [22]: 2; Autoreactivity (Athena) [23]: 5.5; Autoreactivity (Athena) [24]: 10; Autoreactivity (Athena) [25]: 2.5; background substracted RFUs [26]: 0 RFU; pEC50 [27]: 4.20; pEC50 [28]: 4.90; Autoreactivity (Athena) [29]: 5; Autoreactivity (Athena) [30]: 2; Autoreactivity (Athena) [31]: 10; Autoreactivity (Athena) [32]: 4.5; Autoreactivity (Athena) [33]: 2; Autoreactivity (Athena) [34]: 5; Autoreactivity (Athena) [35]: 13.5; Autoreactivity (Athena) [36]: 3; Autoreactivity (Athena) [37]: 8; Autoreactivity (Athena) [38]: 4; Autoreactivity (Athena) [39]: 22; Autoreactivity (Athena) [40]: 8; Autoreactivity (Athena) [41]: 3.5; Autoreactivity (Athena) [42]: 5.5; Autoreactivity (Athena) [43]: 26; Autoreactivity (Athena) [44]: 4

— patent US20120321699A1
